Consider five molecules from PMC9439264 (Nature Communications, 2022).

Several values for one entry are separate records, joined by “and”; a condition that tells them apart may be missing. Equal entries are not always repeated.

Assay [1] concerns the target HA ectodomain of A/New Caledonia/20/1999 (H1N1), recombinant (Influenza A virus A/New …, UniProt Q6WG00, strain). Nature of the assay: ELISA. The conditions noted are these: both partners purified.
Assay [2] has as its target HA ectodomain of A/Beijing/262/1995 (H1N1), recombinant, with C-terminal thrombin site, foldon and 6-His-tag (Influenza A virus A/Beijing/262/1995 …, strain). As to the kind of experiment: SPR. Conditions: both partners purified.
The target in assay [3] is T1, HA trimer of A/Beijing/262/1995 (H1N1), thrombin- and trypsin-treated, for the immune complex (Influenza A virus A/Beijing/262/1995 …).
T1 construct: copies: 3 + 3
Nature of the assay: cryo-EM structure; 12H5 Fab with thrombin- and trypsin-treated BJ/1995 HA trimer. The conditions noted are these: both partners purified.

Assay [4] addresses HA ectodomain of A/Beijing/262/1995 (H1N1), recombinant (Influenza A virus A/Beijing/262/1995 …, strain). As to the kind of experiment: SPR. The conditions noted are these: both partners purified.
The target in assay [5] is HA of A/New Caledonia/20/1999 (H1N1) virus, in infected MDCK cells (Influenza A virus A/New …, UniProt Q6WG00, strain). As to the kind of experiment: immunostaining of cells or tissue. Conditions: one partner purified.
In assay [6] the target is HA ectodomain of A/Beijing/262/1995 (H1N1) (Influenza A virus A/Beijing/262/1995 …, strain). As to the kind of experiment: SPR. Conditions: both partners purified.
Assay [7] deals with HA of B/Florida/4/2006 (Yamagata) (Influenza B virus B/Florida/4/2006 …, UniProt E1TVD5, strain). Nature of the assay: ELISA. The conditions noted are these: both partners purified.

B1: CH65, chimeric version (antibody, V domains shown)
VH: EVQLVQSGAEVKKPGASVKVSCKASGYTFTDYHINWVRQAPGQGLEWMGWIHPNSGDTNYAQKFQGWVTMTRDTAISTAYMEVNGLKSDDTAVYYCARGGLEPRSVDYYYYGMDVWGQGTTVTVSS
VL: SVLTQPPSVSVAPGQTARITCGGNDIGRKSVHWNQQKPGQAPVLVVCYDSDRPSGIPERFSGSNSGNTATLTISRVEAGDEADYYCQVWDSSSDHVIFGGGTKLTVL
B1: the binding result in assay [1] is reported as “binds”.

B2: C12H5, human-mouse chimeric version of mAb 12H5 (variable region of mouse 12H5, human IgG1 constant region) (antibody, V domains shown)
VH: QIQLVQSGPELKKPGETVRISCKASGYTFTKNGMNWVQQAPGKGLKWVGWINTYTGEPSYADDFKGRFAFSLETSASTAYLQINNLKNEDMAAYFCARMVRDAMDFWGQGTSVTVSS
VL: DIVLTQSPASLAVSLGQRATISCKASQSVDFDGYNYLNWYQQKPGQPPKLLIYAASNLESGIPARFSGSGSGTDFTLNIHPVEEEDAATYFCQQSNEDPYTFGGGTKLEIK
notes: also called MAb C12H5; C12H5 IgG; copies: 2 + 2
For B2, in assay [2], the koff turned out to be 0.00089 s⁻¹ and the association rate constant (kon) came out at 109000 M⁻¹ s⁻¹.

B3: 12H5 Fab (mouse antibody) (Fab, V domains shown)
VH: B2 VH
VL: B2 VL
notes: source: papain digestion of mAb 12H5 (mouse ascites, protein A), purified with DEAE-5PW
Consider B3, for which the “stoichiometry N” value in assay [3] came out at 3 Fab per HA trimer.

B4: C12H5 (human-mouse chimeric version of mAb 12H5) (antibody, V domains shown)
VH: B2 VH
VL: B2 VL
notes: also called chimeric 12H5 monoclonal antibody; MAb C12H5
Turning to B4, the Kd in assay [4] came to 8.1 nM. Also, the binding result in assay [1] and in assay [5] was “binds” throughout.

B5: C12H5 (chimeric 12H5 monoclonal antibody: variable region of mouse 12H5, human IgG1 constant region) (antibody, V domains shown)
VH: B2 VH
VL: B2 VL
notes: also called MAb C12H5; source: CHO cells, transient transfection, purified from culture media (MAbselect Sure)
Take B5: in assay [6], the dissociation constant Kd was determined as 8.85 nM; the dissociation rate constant (koff) was 0.0007 s⁻¹ and 0.00089 s⁻¹ and 0.00108 s⁻¹; the kon is 109000 M⁻¹ s⁻¹ and 122000 M⁻¹ s⁻¹ and 95300 M⁻¹ s⁻¹. The binding result in assay [7] is “no binding”.
